Experimental data reported in the Human Domainome abundance scans (Beltran et al. 2025).

B1: Serine/threonine-protein kinase LATS1, residues 98 to 141; numbered along this chain, O95835 (parent)
chain: TSEVNPQMLQDLQAAGFDEDMVIQALQKTNNRSIEAAIEFISKM
B2: Apoptosis-associated speck-like protein containing a CARD, residues 114 to 194; numbered along this chain, Q9ULZ3 (parent)
chain: FIDQHRAALIARVTNVEWLLDALYGKVLTDEQYQAVRAEPTNPSKMRKLFSFTPAWNWTCKDLLLQALRESQSYLVEDLER

Variants of: B1
Assay: abundance fitness (aPCA) (normalised: wild type 0, dead -1); higher = more abundant; growth selection in yeast, the domain comes from the species named
Details: Homo sapiens

Abundance fitness, by site and new letter:
E3: G -0.117; S -0.332; A -0.223; K -0.042
I41: H -0.272; G -0.282
F40: M -0.042; R -0.248; K -0.177
E35: W -0.473; C -0.485
Q24: T 0.009; M -0.028; N -0.146
Q7: C -0.354
E39: G -0.217; T -0.237; D -0.113
I34: E -0.068; G -0.266; T 0.046
L26: A -0.523
A36: T -0.258; S -0.073
G16: K -1.03; Q -0.953; A -0.725; I -1.34; P -0.687
E19: V -0.17; M -0.228; R 0.078; P -0.104; F -0.31; C -0.218
T29: Q -0.563; W -1.09
A37: W -1.17; D -0.43; V -0.453; Q -0.428
M21: D 0.023
S33: A -0.797; R -0.907; C -0.467; G -0.136
Q10: F -0.247; H 0.019; L -0.173; R 0.012
F17: A -0.449
A14: W -0.706
Q27: H -0.269
D18: A -0.032
A15: F -0.3; K -0.046; E -0.308; P -0.954
L9: T -0.166; V -0.045; P -0.53
Q13: S -0.127; F -0.536
K43: P -0.333
V22: R -0.623; G -0.008
N30: E 0.015; P -0.529; F -1.05
M8: T -0.447; I -0.431; Q -0.541; P -0.717
P6: H -0.001
A25: P -0.415; S -0.295
R32: M -0.107; K 0.238
D20: A -0.047; N -0.06; T -0.059
I38: F -0.42
D11: G -0.479; Q 0.092
S2: A -0.07
N31: K -0.699; I -0.577; M -0.484; S 0.049; R -0.845; T -0.645
I23: K 0.041; R 0.024
K28: D -0.257; R -0.048; M -0.037; F -0.148
N5: Q -0.528
V4: R -0.515; Y -0.272

Variants of: B2
Assay: as above
Details: Homo sapiens

Abundance fitness, by site and new letter:
E80: D -0.165; V -0.409; C -0.347; Q -0.115; H 0.018; K -0.751; G -0.317; T -0.172; A -0.283; R -0.461; P -0.467; M -0.325; I -0.24; Y -0.532; S -0.204
L75: V -0.408; K -0.944; Q -0.651; T -0.924; M -0.647; P -0.695; W -0.868; S -0.669; E -0.561; H -0.611; D -0.819; C -0.839; A -0.671
A67: L 0.033; H -0.766; Y -0.239; T -0.452; D -1.02; V -0.484; N -0.278; S -0.544; R -0.622; I -0.372; K -0.446; C -0.629; P -0.658; Q -0.711; W -0.491
D78: A -0.286; H -0.034; V -0.45; S -0.119; Q -0.137; W -0.141; T -0.34; E -0.045; C -0.124; N -0.291; L -0.167; I -0.186; K -0.303; G -0.228; Y -0.218; P -0.687
R69: H -0.517; V -0.378; A -0.54; T -0.538; Q -0.716; M -0.505; P -0.753; G -0.736; C -0.367; I -0.195; W -0.679; Y -0.62; E -0.29; D -0.859; N -0.581; F -0.636; L -0.502; K 0.031
Q72: Y -0.332; N 0.141; I -0.977; M -0.545; S -0.216; R -0.691; L -0.633; W -0.615; P -0.987; A -0.191; E 0.116; H 0.009; T -0.659; V -0.574; G -0.627; C -0.272; K -0.626
Y74: K 0.221; E 0.249; G 0.151; T 0.138; L 0.027; P -0.081; M -0.103; Q 0.265; N 0.139; D 0.21; H 0.027; F -0.341; A 0.202; C 0.177; I -0.1; S 0.219; R -0.031
V76: E -0.838; C -0.497; W -0.611; I -0.056; R -0.92; G -0.587; P -0.632; D -0.312; Y -0.538; T -0.558; S -1.05; K -0.598; L -0.27; H -0.959; Q -0.952; F -0.637; A -0.698
E77: V -0.658; W -0.399; Y -0.491; D -0.115; Q -0.124; T -0.63; G -0.481; I -0.479; A -0.209; P -0.66; F -0.147; C -0.616; L -0.428; H -0.365; M -0.244
Q66: V -0.481; N -0.529; S -0.322; T -0.323; R -0.026; P -0.48; W -0.801
L79: S -0.914; V -0.775; N -0.688; Q -0.706; M -0.668; I -0.455; G -0.882; T -0.848; R -0.751; Y -0.886; E -0.774; D -0.508; W -1.06; A -0.726; F -0.678; K -0.857
S73: T -0.048; R -0.025; W -0.302; E -0.218; V -0.517; Q -0.016; F -0.551; C -0.257; N -0.022; M -0.266; A -0.063; L -0.112; I -0.628; Y -0.167; D -0.338; G 0.067; P 0.32; K -0.289; H -0.144
L68: D -1.01; V -0.527; G -0.764; Y -0.777; H -0.334; S -0.838; P -0.569; C -0.688; F -0.477; M -0.449; E -0.886; W -1.18; I 0.001; A -0.733; N -0.54; Q -0.876
S71: M -0.526; R -0.529; T -0.098; W -0.874; F -0.8; V -0.429; P -0.774; L -0.816; G -0.479; A -0.469; C -0.453; Q -0.251; N 0.161; E -0.958; D -0.501; I -0.813; K -0.538; H -0.109
E70: V -0.211; R -0.343; I -0.468; P -0.542; N -0.322; S -0.265; T -0.181; M -0.46; K -0.116; A -0.209; Y -0.588; F -0.401; L -0.467; D -0.152; C -0.202
